Numbered stars: 1 amine (or outer) side, 2 acyl side, 3 side chain; on linkers, the order of the positions; unused ones are H or OH. Square brackets hold non-standard residues; d marks the D form. Primed or numbered codes have the meaning given here. Ends that are not written are not given here. * marks the point of attachment. Eao = rac-1-amino-2,3-dihydro-1H-indene-1-carboxylic acid, O=C(C1(N[*:1])CCc2ccccc21)[*:2]; abu(pip) = (R)-2-amino-4-(piperidin-1-yl)butanoic acid, O=C([C@@H](CCN1CCCCC1)N[*:1])[*:2]; Pro(trans-4-NH2) = O=C([C@@H]1C[C@@H](N[*:3])CN1[*:1])[*:2]; Sni = (S)-nipecotic acid, O=C([C@H]1CCCN([*:1])C1)[*:2]; Egg = 2-Amino-3-piperidin-4-yl-propionic acid; Bmf = rac-2-amino-3-phenyl-butyric acid; Fhy = Amino-piperidin-3-yl-acetic acid; Gly(cPent) = N[C@H](C(=O)O)C1CCCC1; Hyp = O=C(O)[C@@H]1C[C@@H](O)CN1; AR‑314‑145 = not defined here; AR‑314‑169 = not defined here; AR‑314‑170 = not defined here; AR‑314‑171 = not defined here; AR‑314‑172 = not defined here; AR‑385‑008 = not defined here; AR‑385‑017 = not defined here; AR‑385‑042 = not defined here; NMeL = CN[C@@H](CC(C)C)C(=O)O; AR‑385‑12 = not defined here; Aic = NC1(C(=O)O)Cc2ccccc2C1; Phg = N[C@H](C(=O)O)c1ccccc1; orn(Me2) = not defined here; Octanoyl = CCCCCCCC(=O)*; Sni″ = not defined here; Az3 = not defined here; Che = not defined here; Fbz = not defined here; Oct = not defined here; hse = not defined here; leu = not defined here; mpa = not defined here; opa = not defined here; ppa = not defined here; Occ = octanoic acid

This experiment concerns the target T1, natriuretic peptide receptor-B (human).
T1 chain: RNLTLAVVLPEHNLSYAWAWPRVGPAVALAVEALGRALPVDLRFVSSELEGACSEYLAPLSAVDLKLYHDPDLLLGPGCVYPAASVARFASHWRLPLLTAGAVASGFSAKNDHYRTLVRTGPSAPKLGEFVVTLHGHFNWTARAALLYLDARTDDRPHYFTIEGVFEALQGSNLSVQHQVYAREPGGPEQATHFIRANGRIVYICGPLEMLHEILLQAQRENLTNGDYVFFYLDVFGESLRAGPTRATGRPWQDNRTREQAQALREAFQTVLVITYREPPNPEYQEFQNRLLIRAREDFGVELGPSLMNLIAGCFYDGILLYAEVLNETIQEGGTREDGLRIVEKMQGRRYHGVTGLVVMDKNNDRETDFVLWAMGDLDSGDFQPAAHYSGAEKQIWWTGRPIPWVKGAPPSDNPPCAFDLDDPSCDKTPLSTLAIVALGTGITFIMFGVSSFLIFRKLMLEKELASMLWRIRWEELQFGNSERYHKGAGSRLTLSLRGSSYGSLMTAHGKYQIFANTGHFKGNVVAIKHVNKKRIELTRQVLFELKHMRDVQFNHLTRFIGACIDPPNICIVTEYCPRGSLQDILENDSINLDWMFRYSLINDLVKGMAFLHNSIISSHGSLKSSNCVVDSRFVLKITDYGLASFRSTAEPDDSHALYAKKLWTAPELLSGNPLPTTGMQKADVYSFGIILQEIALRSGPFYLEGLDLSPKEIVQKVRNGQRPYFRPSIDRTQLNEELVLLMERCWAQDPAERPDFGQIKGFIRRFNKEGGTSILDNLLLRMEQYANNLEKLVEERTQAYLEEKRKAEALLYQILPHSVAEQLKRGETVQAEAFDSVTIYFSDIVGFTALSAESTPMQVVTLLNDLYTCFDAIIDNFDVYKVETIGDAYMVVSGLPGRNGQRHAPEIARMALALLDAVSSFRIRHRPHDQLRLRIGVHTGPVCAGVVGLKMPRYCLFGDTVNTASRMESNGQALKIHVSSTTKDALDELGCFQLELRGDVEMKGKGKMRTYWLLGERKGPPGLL
Description: cell-based or functional assay.

B1: JAL-1870-2 (peptide)
peptide: [AR‑314‑171]F[leu]L[Hyp][NMeL]DRI-NH2
modifications: reading uncertain; also: printed as (AR-314-171)-Phe-leu-Leu-Hyp-Nml-Asp-Arg-Ile-NH2
On to B1, for which the “EC50 group, cGMP in GTM-3 cells” value was at most 15 µM.

B2: JAL-1869-2 (peptide)
peptide: [AR‑314‑170]F[leu]L[Hyp][NMeL]DRI-NH2
modifications: reading uncertain; also: printed as (AR-314-170)-Phe-leu-Leu-Hyp-Nml-Asp-Arg-Ile-NH2
Take B2: the “EC50 group, cGMP in GTM-3 cells” value was at most 15 µM.

B3: JAL-1884 (peptide)
peptide: Octanoyl-[Sni]FHL[Hyp][NMeL]DRI-NH2
modifications: not fully specified (some residues); printed as Occ-Sni-Phe-his-Leu-Hyp-Nml-Asp-Arg-Ile-NH2
Consider B3, for which the “EC50 group, cGMP in GTM-3 cells” value was at most 5 µM.
The figure for [Occ][Sni]F[ppa]L[Hyp][NMeL]DRI-NH2 (reading uncertain; also: printed as Occ-Sni-Phe-ppa-Leu-Hyp-Nml-Asp-Arg-Ile-NH2) [JAL-1889] is at most 5 µM; for [Occ][Sni]F[Eao]L[Hyp][NMeL]DRI-NH2 [JAL-1892] it is at most 5 µM.

B4: JAL-1851 (peptide)
peptide: [Oct][Sni]F[orn(Me2)]L[Hyp][NMeL]VR[Che]
modifications: reading uncertain; also: printed as Oct-Sni-Phe-orn(Me2)-Leu-Hyp-Nml-Val-Arg-Che
B4: the “EC50 group, cGMP in GTM-3 cells” value is at most 5 µM.
For the molecule [Occ][Sni]F[leu]L[Hyp][NMeL][Bmf]RI-NH2 (reading uncertain; also: printed as Occ-Sni-Phe-leu-Leu-Hyp-Nml-Bmf-Arg-Ile-NH2) [JAL-1857], the “EC50 group, cGMP in GTM-3 cells” value was at most 15 µM.
Take [Occ][Sni]F[mpa]L[Hyp][NMeL]DRI-NH2 (reading uncertain; also: printed as Occ-Sni-Phe-mpa-Leu-Hyp-Nml-Asp-Arg-Ile-NH2) [JAL-1888]: the “EC50 group, cGMP in GTM-3 cells” value was at most 5 µM.

B5: JAL-1873 (peptide)
peptide: [AR‑385‑008][leu]L[Hyp][NMeL]DRI-NH2
modifications: reading uncertain; also: printed as (AR-385-008)-leu-Leu-Hyp-Nml-Asp-Arg-Ile-NH2
Consider B5, for which the “EC50 group, cGMP in GTM-3 cells” value is at most 15 µM.
For [Occ][Sni]F[metO2]L[Hyp][NMeL]DRI-NH2 [JAL-1885], the “EC50 group, cGMP in GTM-3 cells” value is at most 5 µM.

B6: JAL-1883 (peptide)
peptide: Octanoyl-[Sni]FTL[Hyp][NMeL]DRI-NH2
modifications: not fully specified (some residues); printed as Occ-Sni-Phe-thr-Leu-Hyp-Nml-Asp-Arg-Ile-NH2
On to B6, for which the “EC50 group, cGMP in GTM-3 cells” value was at most 15 µM.
As for [Occ][Sni]F[leu]L[Hyp][NMeL][Gly(cPent)]RI-NH2 (reading uncertain; also: printed as Occ-Sni-Phe-leu-Leu-Hyp-Nml-Cpg-Arg-Ile-NH2) [JAL-1859], the “EC50 group, cGMP in GTM-3 cells” value was at most 5 µM.

B7: JAL-1877 (peptide)
peptide: [Occ][Sni]F[AR‑385‑12]L[Hyp][NMeL]DRI-NH2
modifications: reading uncertain; also: printed as Occ-Sni-Phe-(AR-385-12)-Leu-Hyp-Nml-Asp-Arg-Ile-NH2
Consider B7, for which the “EC50 group, cGMP in GTM-3 cells” value was at most 1 µM.

B8: JAL-1886 (peptide)
peptide: [Occ][Sni]F[AR‑385‑017]L[Hyp][NMeL]DRI-NH2
modifications: reading uncertain; also: printed as Occ-Sni-Phe-(AR-385-017)-Leu-Hyp-Nml-Asp-Arg-Ile-NH2
Turning to B8, the “EC50 group, cGMP in GTM-3 cells” value was at most 5 µM.
The figure for [Oct][Sni]F[leu]L[Pro(trans-4-NH2)][NMeL]VR[Che] (reading uncertain; also: printed as Oct-Sni-Phe-leu-Leu-Tap-Nml-Val-Arg-Che) [JAL-1849] is at most 5 µM.
Take [Occ][Sni]F[leu]L[Hyp][NMeL][Phg]RI-NH2 (reading uncertain; also: printed as Occ-Sni-Phe-leu-Leu-Hyp-Nml-Phg-Arg-Ile-NH2) [JAL-1858]: the “EC50 group, cGMP in GTM-3 cells” value is at most 15 µM.

B9: JAL-1868-2 (peptide)
peptide: [AR‑314‑169]F[leu]L[Hyp][NMeL]DRI-NH2
modifications: reading uncertain; also: printed as (AR-314-169)-Phe-leu-Leu-Hyp-Nml-Asp-Arg-Ile-NH2
For B9, the “EC50 group, cGMP in GTM-3 cells” value was at most 5 µM.
Turning to [Occ][Sni″]FGLKLDRI-NH2 (reading uncertain; also: printed as Occ-Sni-Phe-Gly-Leu-Lys-Leu-Asp-Arg-Ile-NH2) [JAL-0743], the “EC50 group, cGMP in GTM-3 cells” value was at most 5 µM.
[Occ][Sni]F[Fbz]L[Hyp][NMeL]DRI-NH2 (reading uncertain; also: printed as Occ-Sni-Phe-Fbz-Leu-Hyp-Nml-Asp-Arg-Ile-NH2) [JAL-1881]: the “EC50 group, cGMP in GTM-3 cells” value was at most 5 µM.
In the case of [Occ][Sni]F[Egg]L[Hyp][NMeL]DRI-NH2 [JAL-1890] it was at most 1 µM.

B10: JAL-1880 (peptide)
peptide: [AR‑385‑042][leu]L[Hyp][NMeL]DRI-NH2
modifications: reading uncertain; also: printed as (AR-385-042)-leu-Leu-Hyp-Nml-Asp-Arg-Ile-NH2
Take B10: the “EC50 group, cGMP in GTM-3 cells” value was at most 5 µM.
The figure for [Occ][Sni]F[Fhy]L[Hyp][NMeL]DRI-NH2 [JAL-1882] is at most 5 µM.
As to [Occ][Sni]F[opa]L[Hyp][NMeL]DRI-NH2 (reading uncertain; also: printed as Occ-Sni-Phe-opa-Leu-Hyp-Nml-Asp-Arg-Ile-NH2) [JAL-1887], the “EC50 group, cGMP in GTM-3 cells” value was at most 5 µM.
In the case of [Occ][Sni]F[hse]L[Hyp][NMeL]DRI-NH2 (reading uncertain; also: printed as Occ-Sni-Phe-hse-Leu-Hyp-Nml-Asp-Arg-Ile-NH2) [JAL-1878] it was at most 5 µM; in that of [Occ][Az3]FGLKLDRI-NH2 (reading uncertain; also: printed as Occ-Az3-Phe-Gly-Leu-Lys-Leu-Asp-Arg-Ile-NH2) [JAL-0742], at most 15 µM; in that of [Occ][Sni]F[abu(pip)]L[Hyp][NMeL]DRI-NH2 [JAL-1879], at most 5 µM.

B11: JAL-1850 (peptide)
peptide: [Occ][Sni]F[orn(Me2)]L[Pro(trans-4-NH2)][NMeL]VR[Che]
modifications: reading uncertain; also: printed as Occ-Sni-Phe-orn(Me2)-Leu-Tap-Nml-Val-Arg-Che
B11: the “EC50 group, cGMP in GTM-3 cells” value was at most 1 µM.

B12: JAL-1864 (peptide)
peptide: [Occ][Sni]F[leu]L[Hyp][NMeL][AR‑314‑145]RI-NH2
modifications: reading uncertain; also: printed as Occ-Sni-Phe-leu-Leu-Hyp-Nml-(AR-314-145)-Arg-Ile-NH2
Take B12: the “EC50 group, cGMP in GTM-3 cells” value was at most 15 µM.

B13: JAL-1874 (peptide)
peptide: [AR‑314‑172][leu]L[Hyp][NMeL]DRI-NH2
modifications: reading uncertain; also: printed as (AR-314-172)-leu-Leu-Hyp-Nml-Asp-Arg-Ile-NH2
Regarding B13, the “EC50 group, cGMP in GTM-3 cells” value was at most 5 µM.
Consider [Occ][Sni]F[Aic]L[Hyp][NMeL]DRI-NH2 [JAL-1893], for which the “EC50 group, cGMP in GTM-3 cells” value is at most 5 µM.

Source of the values: patent US9187525B2, “Methods of treating ophthalmic diseases using NPR-B agonists” (Shire Orphan Therapies GmbH, dated 2015).
